Results taken from the DeepSol protein solubility set.

Assay: soluble on expression in E. coli; label from the status in PepcDB or PDB records
With “MAKVCYFTGRKTSSGNNRSHAMNSTKRTVKPNLQKVRVLIDGKPKKVWVSTRALKSGKIERVLEHHHHHH” the “soluble on expression in E. coli” value was “not soluble”.
With “MAKVLVLNASYEPLNITHWQRAVVLLLKDKAEALENNGKLIYANFPLPSVIRLRQYIKVPYKEIPLTRRNVLERDRHTCQYCNYKGEQLTLDHVIPRSRGGGDSWENLVTACVRCNIKKGNRTPREAQMSLNYTPRRPYSSLLFEIIKHTRNDRNHEWRKYVIGILEHHHHHH” the “soluble on expression in E. coli” value was “not soluble”.
With “MAKVYGSLIDNETRCTHYYSSLDVIAIKFKCCNKYYPCYKCHNEHVSHTIERWAENEFDEKAIMCGVCKHEMRIRDYMMVEMCPRCKAHFNSRCKFHYHLYFEVLEHHHHHH” the “soluble on expression in E. coli” value was “not soluble”.
With “MAKWGEGDPRWIVEERADATNVNNWHWTERDASNWSTEKLKTLFLAVRVENEEGKCEVTEVNKLDGEASINNRKGKLIFFYEWTIKLNWTGTSKSGVQYKGHVEIPNLSDENSVDEVEISVSLAKDEPDTNLVALMKEDGVKLLREAVGIYISTLKTEFTQGMILPTVNGESVDPVGQPALKTETCKAKSAPSKSQAKPVGVKIPTCKITLKETFLTSPEELYRVFTTQELVQAFTHAPAALEADRGGKFHMVDGNVTGEFTDLVPEKHIAMKWRFKSWPEGHFATITLTFIDKNGETELCMEGRGIPAPEEERTRQGWQRYYFEGIKQTFGYGARLF” the “soluble on expression in E. coli” value was “soluble”.
For “MAKYCLKKTSKRVSCAKRYKIEKKVRDHNRKVKKEAKKNGTTNKKEKTISVPNSCPFKEEILVQAEQEREKIKVRQEAAKEAAKIHRIEKRKNNLPANFESMVAKASKQGTEFDKKVASAAEHEKFNTLDDKTIKAYASEVRKTVEIADVIIQVLDARDPLGSRSKSVEDQVLKGGKRLVLLLNKIDLVPRENVQKWLEYLRGQFPTIAFKASTQEQKSNIGRFNSAILNNTETSKCVGADIVMKILANYCRNKDIKTSIRVGVVGFPNVGKSSVINSLKRRKACNVGNLPGITKEIQEVELDKNIRLIDSPGVILVSQKDLDPIEVALKNAIRVDNLLDPIAPVHAILRRCSKETIMLHYNLADFNSVDQFLAQLARRIGKLRRGARPDVNAAAKRVLNDWNTGKLRYYTHPPEQGTAKEDIVVPAEVVSQFSKEFDIDAIAEEQNQIVEGLPMESDIIAPHNSDEEEDDDDEMETDVNEKKQTVTSGRKVKGPTKDDDKPVLPESLALEGNVQLNKLIKTAIKKQKKKSKKTANRADKLSDSLGNMLGGDAMEM”, the “soluble on expression in E. coli” value was “not soluble”.
For “MALAEEDVHMIIKQVLDEVVGASTQYTHKDSVQWNQKAVEQITKKLVAAGKPYKYVVTSSFLQISSGSGLNVSTISYWNKVTDSSYMYRWEAKTMLAIVYVFAIAI”, the “soluble on expression in E. coli” value was “not soluble”.
In the case of “MALDLTAYFDRINYRGATDPTLDVLQDLVTVHSRTIPFENLDPLLGVPVDDLSPQALADKLVLRRRGGYCFEHNGLMGYVLAELGYRVRRFAARVVWKLAPDAPLPPQTHTLLGVTFPGSGGCYLVDVGFGGQTPTSPLRLETGAVQPTTHEPYRLEDRVDGFVLQAMVRDTWQTLYEFTTQTRPQIDLKVASWYASTHPASKFVTGLTAAVITDDARWNLSGRDLAVHRAGGTEKIRLADAAAVVDTLSERFGINVADIGERGALETRIDELLARQPGADAP”, the “soluble on expression in E. coli” value is reported as “not soluble”.
For “MALGGGTFVTQNKILPGSYINFISAKRATSSLSDRGIVAIPLELDWGIDEDVFQVTSDDFEKYSVKYFGYDYTHEKLKGLRDLFKNIRLGYFYKLNKGVKASCTIATAKYSGIRGNDLKVTVTTNIDDNAKFDVVTLLDNKKVDTQIAKVITDLQDNDYITWKKDATLEASAGLVFTGGTNGEAVTGAEYQAFLDKIESYSFNALGCLATTTEIKSLFVEFTKRMRDKVGAKFQTVLYKKSDADYEGVVSVENKIKEIGLVESSLIYWAAGAIAGCDINKSNTNKKYDGEFDVDVNYTQIQLEEALKTGKFIFHKVGDEVHVLEDINTFVSFTDDKNDDFSSNQSVRVLDQIANDIATLFNEKYLGKVPNDKAGRISFWNDVVKHHKELENIRAIEDFKTDDVSVELGNDKKTVIVSDAVKVINAMSKLYMTVSVNLEHHHHHH”, the “soluble on expression in E. coli” value was “soluble”.
With “MALHDENVVWHSHPVTVQQRELHHGHRGVVLWFTGLSGSGKSTVAGALEEALHKLGVSTYLLDGDNVRHGLCSDLGFSDADRKENIRRVGEVANLMVEAGLVVLTAFISPHRAERQMVRERVGEGRFIEVFVDTPLAICEARDPKGLYKKARAGELRNFTGIDSVYEAPESAEIHLNGEQLVTNLVQQLLDLLRQNDIIRS” the “soluble on expression in E. coli” value was “soluble”.
In the case of “MALLEICCYSMECALTAQRNGADRIELCAAPKEGGLTPSFGVLRSVREHITIPVHPIIRPRGGDFYYTDGEFAAMLEDIRLVRELGFPGLVTGVLTVDGDVDMSRMEKIMAAAGPLAVTFHRAFDMCANPFNALKNLADAGVARVLTSGQKADAAQGLSIIMELIAQGDAPTIMAGAGVRANNLQNFLDAGVREVHSSAGVLLPSPMRYRNQGLSMSADIQADEYSRYRVEGAAVAEMKGIIVRHQAK”, the “soluble on expression in E. coli” value is reported as “not soluble”.
For “MALLTSKLRYLLLFYAVFQAAQFGLRWKSYDISPKQFKTIAGKAAAAPTISQSISTLTSGMRTYYEPIMPSHFEWHAIQLGGLTLRMYPMLTAFTEFAAAFSAPFPTSGRPGLHWANTTCTVLKGKVSRFNDGTQDETSENFASGAAFRHGQFESHVYSFEKDTYVACYGRGFLPLSSTVHVTSGISLGEPLSVIQFYMKQAYNYWNNLSHTLYRVFQHYKARATGEL”, the “soluble on expression in E. coli” value was “not soluble”.
With “MALTEERVLEALRTVMDPELGKDLVSLGMVDEVRVEGGRVDLLVNLTTPACPLKGQIEADIRRALAPLGAEEVRVRFGGGVRPPERYALPGVKHVVAVASGKGGVGKSTVAANLALALSREGAKVGLLDADLYGPSQAKMFGLEGMRLKVDQDRRILPLEAHGIKVLSIANIVPPGQALAWRGPILHGTLKQFLQDVNWGELDYLVVDLPPGTGDVQLSLSQLTQVSGGVIVTTPQEVALIDAERAADMFRKLQVPVLGVLENMSAFLCPHCGKPTPIFGEGGGRRLAERLKTRFLGEIPLTLALRESGDRGVPVLAQDPEGLEAQAFLKAARELAAALSVQTFLPLPMA” the “soluble on expression in E. coli” value was “soluble”.
For “MAMIKVDQHYFELIENYRECFNEEQFIARYSDILDKYDYIVGDYGYDQLRLKGFYKDSNKKAEMSKRFSNIQDYIFEYCNFGCPYFVLRHLSKQEVKKLIEEVHPSDVIDDDNKLQDVKIKPTIQDTEHLEHHHHHH”, the “soluble on expression in E. coli” value was “soluble”.
For “MAMQAAKRANIRLPPEVNRILMIRNLPYKITAEEMYDIFGKYGPIRQIRVGNTPETRGTAYVVYEDIFDAKNACDHLSGFNVCNRYLVVLYYNANRAFQKMDTKKKEEQLKLLKEKYGINTDPPK”, the “soluble on expression in E. coli” value was “soluble”.
In the case of “MAMSNMTYNNVFDHAYEMLKENIRYDDIRDTDDLHDAIHMAADNAVPHYYADIFSVMASEGIDLEFEDSGLMPDTKDVIRILQARIYEQLTIDLWEDAEDLLNEYLEEVEEYEEDEE”, the “soluble on expression in E. coli” value is reported as “soluble”.
In the case of “MAMSTKLSVAIHILSLIETGPQEQVTSEYIASSVNTNPVVVRRLMSQLKKAGLIHSMRGANKNTLLKKPEEISLYEIYTAVELEREIFNIHQNPNPNCSVGANIQSVLETEFTKVQQKMEEELKSITLADVIHEIEVKRDK”, the “soluble on expression in E. coli” value is reported as “not soluble”.
For “MANAADDRRPKYQRIADTLREAIRSGEYGPGDRLPGENDLMATHGVARMTARQALSVLRDEGVAEARKGAGVFVREFRPLRRRGIQRLARQQWGNGRSIWSADIEDRSLDVDQVTVSEEAAPDGVAAVLDLADGETVCVRRRRFVLDGKPVLLATSYLPAALVAGSAITQEDTGKGGTYARLAELGHGPVHFREEIRSRMPSKAEASQLSVAAGTPVILICRTAFTDEGRAVEINEMTLDAASYVLEYDFDA”, the “soluble on expression in E. coli” value was “not soluble”.
With “MANSSVELRVSEAYPRDVGRKIVRIDRQTAARLGVEVGDFVKVSKGDRSVVAVVWPLRPDDEGRGIIRMDGYLRAALGVTVGDTVTVEKAEKVEPASKVVLAPTEPIRFGRDFVEYVKEFLLRKPISRGETIIVPVLEGLPLVVVSTQPAHFVYVTEATEVEIREKPVREEIERLRGVPKVTWEDIGDLEEAKERIREIVELPMKHPEIFKHLGIEPPKGILLYGPPGTGKTLLAKALANEIGAYFISINGPEIMSKYYGESEQRLREIFKEAEENAPSIIFIDEIDAIAPKREEVTGEVEKRVVAQLLTLMDGLKERGRVIVIGATNRPDAIDPALRRPGRFDREIEIRPPDKRARAEILKVHTRNMPLAEDVDLDKLAEMTHGYTGADLAALAKEAAMAALRRFIREGKINFEAKEIPATVLKELKVTMKDFMEAMKMIRPTLIREIYVEVPEVRWSDIGGLEEAKQALREAVEWPLKHPEIFEKMGIRPPRGVLLFGPPGTGKTLLAKAVATESGANFIAVRGPEILSKWVGESERAIRKIFERARQAAPAVVFFDEIDAIAPARGARFDTSGVTDRIVNQMLAEMDGIQPLSNVVVIGATNRPDILDPALLRPGRFDRLIYVPPPDKEARKEIFKIHTKKVPLGEDVDLEKLAEMTEGYTGADIEAVVREAVMAKLREKLEVGKVEMRHFLEALKKVPPSLTKEDILRYERLAKELKKLTLG” the “soluble on expression in E. coli” value was “soluble”.
For “MANVNTFSIVKNVKLDLGIEDDNQDQLLEMLLNRITDHFKANYGVLEIDNAFSFVLEDCLIARFNRRGSERAKTEEVEGHKTTYYDHLNEFEPYDAMIMAKLNLIKDKSRKGGLYFL”, the “soluble on expression in E. coli” value was “not soluble”.
In the case of “MAPIRRSSRLAERYDAIESKKRSLKRLEEQIKAEEEQFSDKMKQLEDEIKIKEQVITMFKRKTVRREWMRNSRQATTNINIAQIESLKLQLEEGEKDIAEAEKQAEPTTPQQEAELSETFKQMVRDRMKVKDVDEKLLQQYMKKENVEFEWRSCFICTMEYSRTDKNLHPIILNCGHNLCRSCINKLTGNGIVKCPFDRLDTRVRVTGLPRNLALINL”, the “soluble on expression in E. coli” value is reported as “not soluble”.
With “MAPKRALPTEQVVAQLLGDDMGPSGPRKRERLNHLSQEEKMDRRKLKNRVAAQNARDKKKERSAKIEDVMRDLVEENRRLRAENERLRRQNKNLMNQQNESVMYMEENNENLMNSNDACIYQNVVYEEEVVGEVAPVVVVGGEDRRAFESAAFINEPQQWEQARSTSINNNISNQLRRMDSKKNNTISVDMYLTIISILCNHMDRNKKMDTSNKSSNISRAQAESSIDSLLATLRKEQTVMQRLVQADPCTHLQKRVKHFRRIP” the “soluble on expression in E. coli” value was “soluble”.
With “MAPKRLMVEHALARAKEAAGLADVKKVYTYYGDEACTVFIGRTKQGKAVVVWVPEKKGSVVVKGVDSGISEAEARAILQRDRRPRRIIDATLGMEKGVPLWELTYIDAEGRYSFYYLHFADGAFLKRYSFQQ” the “soluble on expression in E. coli” value was “not soluble”.
In the case of “MAPLETIYDESLNKSADSIDDKKWSKLFPRIVSDPDRSSNFMTRAIYVAFSAVLRNRNILGQEYFTKNYITEKLKCMTLCFRNPRSNQIAQLLRNAGDATKDGFLKEVSLVITNNEGDLEAIEVFSMKFIYFENGGVVARLSTDKNGQEDPHFAKLAQLVYEGGDSVRDQMVTIVRSVQFLCTKVLEPLPEEFTANFRLEYTNDAPSNFRIDGFEDSSTFYTLPDDIQSATIGHLRPGCHAANMECWSMLMSDSYEAELTLKRHLDKVSDRHGFNPVNVLYKSFNSEDSDTSLSQATTESVNDQGGNETSPVDDITESLEKAQMSPIQTRPTTRRGADGSKTRSSPYSRSCK”, the “soluble on expression in E. coli” value is reported as “not soluble”.
